This is an account of results in paper doi:10.1101/2023.06.20.545791 (bioRxiv, 2023).

Ends that are not written are not given here.

Assay [1] has as its target T1, IRE1α lumenal domain (IRE1αLD) (human, UniProt O75460 24-443).
T1 sequence: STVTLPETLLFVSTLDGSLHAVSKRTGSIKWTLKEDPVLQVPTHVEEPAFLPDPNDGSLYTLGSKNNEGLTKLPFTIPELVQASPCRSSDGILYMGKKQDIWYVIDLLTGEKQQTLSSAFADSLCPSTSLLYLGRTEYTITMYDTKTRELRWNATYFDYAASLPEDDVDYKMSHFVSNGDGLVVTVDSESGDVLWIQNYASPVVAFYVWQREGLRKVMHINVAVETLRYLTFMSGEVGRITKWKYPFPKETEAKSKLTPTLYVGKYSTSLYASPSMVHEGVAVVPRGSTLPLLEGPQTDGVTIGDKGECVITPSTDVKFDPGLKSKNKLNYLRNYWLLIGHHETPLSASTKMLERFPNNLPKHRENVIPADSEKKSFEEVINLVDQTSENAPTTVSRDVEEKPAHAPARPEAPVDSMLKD
Description: […].

The target in assay [2] is T1, IRE1α lumenal domain (IRE1αLD). Description: […]. This is another data set of the same source.
For assay [3] the target is unchanged. The assay is described as follows: fluorescence polarisation. Background: Fluorescence polarisation rises when a labelled molecule tumbles more slowly, as on binding a larger partner.

B1: CTxA1_(I124-R141) peptide (peptide)
peptide: IYGWYRVHFGVLDEQLHR
B1: binding in assay [1] was put at a Kd of 44 ± 5 µM.

B2: heat-labile enterotoxin (LTx) peptide 124-132 (peptide)
peptide: IYGWYRVNF
Turning to B2, the binding result in assay [1] was “binds”.

B3: CTxA1_(I124-F132) peptide (peptide)
peptide: IYGWYRVHF
As for B3, in assay [1], the binding result is “binds”.

B4: IRE1α_(Y358-L369) peptide (peptide)
peptide: YWLLIGHHETPL
modifications: not fully specified (N-terminus)
Take B4: the Ki (as a rule, a dissociation constant, usually derived from enzyme kinetics or from competition with a known ligand) in assay [2] was 220 ± 30 µM. Moreover, the dissociation constant (Kd) (as a rule, a measure of binding affinity in units of concentration) in assay [3] was 190 ± 20 µM.

B5: SARS-CoV2 ORF8 peptide 39-48 (peptide)
peptide: IHFYSKWYIR
B5: the binding result in assay [1] was “binds”.
